One may read the IC50 as the concentration at which inhibition is half-maximal. As usually defined, the Kd is the equilibrium constant for the complex coming apart.

For test [1], the target named is T1, human PD-L1 on cells (hPD-L1-transfected CHO cells; IFNg-induced HT-1080 tumor cells) (human, UniProt Q9NZQ7 19-290).
T1 construct: whole, on cells; The CHO transfectants are negative for human CD47; HT-1080 cells also carry CD47; also called PD-L1+CD47+ HT-1080
As to the kind of experiment: cell-based competition: hPD-1-moFc binding to IFNg-induced PD-L1+CD47+ HT-1080 cells, CellInsight imaging.

In test [2] the target is T2, recombinant mouse PD-L1 soluble protein (mouse, UniProt Q9EP73 19-238, limits assumed, biotinylated).
T2 construct: ELISA and BLI used proteins from different sources; They are kept as one molecule because no limits are stated
As to the kind of experiment: statement in the xenograft example; assay not named.

In test [3] the target is T3, recombinant mouse CD47 soluble protein (mouse, UniProt Q61735 19-140, limits assumed).
T3 sequence (looked up): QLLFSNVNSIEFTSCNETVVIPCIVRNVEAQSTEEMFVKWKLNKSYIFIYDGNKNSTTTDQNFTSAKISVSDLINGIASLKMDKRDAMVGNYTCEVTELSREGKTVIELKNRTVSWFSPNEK
Described as above.

The target of test [4] is human CD47 on cells (Raji, Nalm-6, HT-1080 tumor cells; human red blood cells) (human, UniProt Q08722 19-323). As to the kind of experiment: cell-based or functional assay.
Test [5] deals with T4, recombinant human CD47 soluble protein (human, UniProt Q08722 19-139).
T4 construct: ELISA and BLI used different preparations; They are kept as one molecule because no limits are stated; also called His-tag human CD47
As to the kind of experiment: BLI (OctetRED96), His-tag CD47 on HIS1K biosensors, bsAb in solution, 1:1 global fit, 30 C.

Test [6] has as its target T5, recombinant human PD-L1 soluble protein (human, UniProt Q9NZQ7 19-238, biotinylated).
T5 construct: Bought soluble protein; also called hPD-L1; B7-H1
As to the kind of experiment: BLI (OctetRED96), biotinylated PD-L1 on streptavidin biosensors, bsAb in solution, 1:1 global fit, 30 C.

Test [7] concerns the target T6, recombinant cynomolgus monkey PD-L1 soluble protein (cynomolgus monkey, UniProt G7PSE7 19-238, biotinylated).
T6 construct: ELISA and BLI used proteins from different suppliers; They are kept as one molecule because no limits are stated; also called cyno PD-L1; cynomolgus PD-L1
Described as above.

The target in test [8] is T2, recombinant mouse PD-L1 soluble protein. Described as above.
The target in test [9] is T7, recombinant cynomolgus monkey CD47 soluble protein (cynomolgus monkey, UniProt A0A2K5X523 19-139).
T7 construct: also called cyno CD47; cynomolgus CD47
As to the kind of experiment: BLI (OctetRED96); set-up for cynomolgus CD47 not described.

B1: S79 anti-PD-L1 mAb (antibody, human IgG4 S228P, lambda, V domains shown)
VH: not shown
VL: QSALTQPASVSGSPGQSITISCTGTSSDVFRPPLVSWYQQHPGKAPKLMIYFASLRPSGVSNRFSGSKSGNTASLTISGLQAEDEADYYCSSWDHTGDGHVFGGGTKLTVLG
notes: Bivalent monospecific anti-PD-L1 antibody with the common heavy chain and the S79 lambda light chain; also called S79 mAb; S79_Sc3_1G7_VLCL2 aPDL1 IGLV2-23
Molecule B1 displayed an IC50 in test [1] of 0.00252 nM.

B2: K38xS28 CD47xPD-L1 bispecific antibody (bispecific antibody, human IgG4 S228P, kappa, lambda)
heavy: not shown
light 1: DIQMTQSPSSLSASVGDRVTITCRASQVIANWLNWYQQKPGKAPKLLIYAGSHLQSGVPSRFSGSGSGTDFTLTISSLQPEDFATYYCQQMHPRAPKTFGQGTKVEIKRTVAAPSVFIFPPSDEQLKSGTASVVCLLNNFYPREAKVQWKVDNALQSGNSQESVTEQDSKDSTYSLSSTLTLSKADYEKHKVYACEVTHQGLSSPVTKSFNRGEC
light 2: not shown
notes: also called K38xS28 bsAb
For B2, the binding result in test [2] and in test [3] was “no binding” throughout.

B3: K33xS79 CD47xPD-L1 bispecific antibody (bispecific antibody, human IgG4 S228P, kappa, lambda)
heavy: not shown
light 1: DIQMTQSPSSLSASVGDRVTITCRASQSISSYLNWYQQKPGKAPKLLIYAASSLQSGVPSRFSGSGSGTDFTLTISSLQPEDFATYYCQQFHKRSPQKFGQGTKVEIKRTVAAPSVFIFPPSDEQLKSGTASVVCLLNNFYPREAKVQWKVDNALQSGNSQESVTEQDSKDSTYSLSSTLTLSKADYEKHKVYACEVTHQGLSSPVTKSFNRGEC
light 2: QSALTQPASVSGSPGQSITISCTGTSSDVFRPPLVSWYQQHPGKAPKLMIYFASLRPSGVSNRFSGSKSGNTASLTISGLQAEDEADYYCSSWDHTGDGHVFGGGTKLTVLGQPKAAPSVTLFPPSSEELQANKATLVCLISDFYPGAVTVAWKADSSPVKAGVETTTPSKQSNNKYAASSYLSLTPEQWKSHRSYSCQVTHEGSTVEKTVAPTECS
notes: also called K33xS79 bsAb
Turning to B3, the “in vitro phagocytosis potency (ADCP of Nalm-6 cells), macrophage donor D#096” value in test [4] is 29.2. Moreover, the “in vitro phagocytosis potency (ADCP of Nalm-6 cells), macrophage donor D#097” value in test [4] came to 16. Besides, the “in vitro phagocytosis potency (ADCP of Nalm-6 cells), macrophage donor D#103” value in test [4] came out at 7.5. The binding result in [3] is “no binding”. The Kd worked out at 56 nM in test [5], 0.5 nM in [6], 1.35 nM in test [7] and 0.52 nM in test [8]. Also, the IC50 in test [1] was determined as 0.00219 nM.

B4: K106xS79 CD47xPD-L1 bispecific antibody (bispecific antibody, human IgG4 S228P, kappa, lambda)
heavy: not shown
light 1: not shown
light 2: B3 light 2
notes: also called K106xS79 bsAb
For B4, in test [4], the “in vitro phagocytosis potency (ADCP of Nalm-6 cells), macrophage donor D#096” value was 99.2; the “in vitro phagocytosis potency (ADCP of Nalm-6 cells), macrophage donor D#097” value amounted to 94; the “in vitro phagocytosis potency (ADCP of Nalm-6 cells), macrophage donor D#103” value turned out to be 23.5. In addition, in [2], the binding result is recorded as “binds”. In addition, the binding result in [3] is reported as “no binding”. In [5], the Kd came out at 99 nM. This molecule also showed an IC50 in [1] of 0.00351 nM.

B5: K38xS79 CD47xPD-L1 bispecific antibody (bispecific antibody, human IgG4 S228P, kappa, lambda)
heavy: not shown
light 1: B2 light 1
light 2: B3 light 2
notes: also called K38xS79 bsAb; K38S79
Take B5: in [4], the “in vitro phagocytosis potency (ADCP of Nalm-6 cells), macrophage donor D#096” value came out at 5.6; the “in vitro phagocytosis potency (ADCP of Nalm-6 cells), macrophage donor D#097” value was 5; the “in vitro phagocytosis potency (ADCP of Nalm-6 cells), macrophage donor D#103” value was determined as 3.2. In addition, the binding result in test [2] is listed as “binds”. In test [3], the binding result was “no binding”. For the same molecule, the Kd in test [9] is 16 nM. In addition, in test [5], the equilibrium dissociation constant (Kd) was determined as 13.6 nM. This molecule registered an IC50 in [1] of 0.00083 nM.

(Values after patent US20220315655A1 (NOVIMMUNE, published 2022).)
